Laboratory results from patent US20250136710A1.

What was measured:
[1] = biological target: human PVRIG expressed on cells (human) (UniProt Q6DKI7); test: FACS
[2] = biological target: human PVRIG expressed on cells (human) (UniProt Q6DKI7); test: FACS; Jurkat cells
[3] = biological target: mouse PVR protein, recombinant (mouse); test: SPR / ELISA with recombinant proteins

human PVRIG expressed on cells (human), sequence (Q6DKI7 41-326): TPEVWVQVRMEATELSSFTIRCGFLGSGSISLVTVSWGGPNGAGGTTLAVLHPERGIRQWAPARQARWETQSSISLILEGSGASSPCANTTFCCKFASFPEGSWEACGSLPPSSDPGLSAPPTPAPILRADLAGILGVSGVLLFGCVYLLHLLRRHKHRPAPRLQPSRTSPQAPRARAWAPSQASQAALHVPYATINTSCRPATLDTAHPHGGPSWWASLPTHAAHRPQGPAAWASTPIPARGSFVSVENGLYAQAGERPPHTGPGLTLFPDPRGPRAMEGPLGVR

Kd [1] | Kd [2] | fold lower affinity than the interaction with mPVRL2 [3] | Substance
298 pM | 150 pM | – | PVRIG (COM701)
– | – | 10 fold | mouse PVRIG Fc (Fc fusion)
